Reference: publication PMC11817110

Biological target: T1, recombinant human LAIR1 (leukocyte-associated immunoglobulin-like receptor 1) (human), Q6GTX8
T1 chain: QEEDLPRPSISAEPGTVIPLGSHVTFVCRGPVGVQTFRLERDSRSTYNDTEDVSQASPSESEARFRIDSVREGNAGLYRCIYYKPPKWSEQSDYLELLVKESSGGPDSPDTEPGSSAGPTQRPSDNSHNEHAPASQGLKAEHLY

B1: polymerized type I collagen (protein)
chain 1: not shown
chain 2: GPMGLMGPRGPPGAVGAPGPQGFQGPAGEPGEPGQTGPAGARGPPGPPGKAGEDGHPGKPGRPGERGVVGPQGARGFPGTPGLPGFKGIRGHNGLDGLKGQPGAPGVKGEPGAPGENGTPGQTGARGLPGERGRVGAPGPAGARGNDGSVGPVGPAGPIGSAGPPGFPGAPGPKGELGPVGNPGPAGPAGPRGEVGLPGVSGPVGPPGNPGANGLPGAKGAAGLPGVAGAPGLPGPRGIPGPAGAAGATGARGLVGEPGPAGSKGESGNKGEPGAAGPQGPPGPSGEEGKRGPNGEVGSAGPPGPPGLRGNPGSRGLPGADGRAGVMGPPGSRGPTGPAGVRGPNGDSGRPGEPGLMGPRGFPGSPGNVGPAGKEGPAGLPGIDGRPGPIGPAGARGEPGNIGFPGPKGPTGDPGKNGEKGHAGLAGARGAPGPDGNNGAQGPPGPQGVQGGKGEQGPAGPPGFQGLPGPAGTAGEVGKPGERGIPGEFGLPGPAGPRGERGPPGESGAAGPAGPIGSRGPSGPPGPDGNKGEPGVLGAPGTAGPSGPSGLPGERGAAGIPGGKGEKGETGLRGDVGSPGRDGARGAPGAVGAPGPAGANGDRGEAGPAGPAGPAGPRGSPGERGEVGPAGPNGFAGPAGAAGQPGAKGERGTKGPKGENGPVGPTGPVGAAGPAGPNGPPGPAGSRGDGGPPGATGFPGAAGRIGPPGPSGISGPPGPPGPAGKEGLRGPRGDQGPVGRTGETGASGPPGFAGEKGPSGEPGTAGPPGTPGPQGILGAPGFLGLPGSRGERGLPGVAGSVGEPGPLGIAGPPGARGPPGAVGNPGVNGAPGEAGRDGNPGSDGPPGRDGQAGHKGERGYPGNPGPAGAAGAPGPQGAVGPAGKHGNRGEPGPAGSVGPAGAVGPRGPSGPQGIRGEKGEPGDKGPRGLPGLKGHNGLQGLPGLAGHHGDQGAPGPVGPAGPRGPAGPSGPAGKDGRTGQPGAVGPAGIRGSQGSQGPAGPPGPPGPPGPPGPS
modifications: here or on the partner: covalent bond between the protein and the PVP moiety; γ-irradiated | covalent bond between the protein and the PVP moiety; γ-irradiated
In the case of B1, the percentage of CD14+/CD16+/CD163+/IL-10-expressing cells (M2 phenotype) in M1 cultures without vs. with 10% PTIC, flow cytometry is reported as 19.8% and the percentage of CD16+/CD36+/CD86+/IL-1β-expressing cells (M1 phenotype) in M1 cultures without vs. with 10% PTIC, flow cytometry is reported as 1.5%.
